What was measured:
[1] = target: T1, FLC-1 (FRI-like carbapenemase-1) (Enterobacter cloacae, UniProt A0A2I5JVQ1); experiment: nitrocefin hydrolysis inhibition; assay type: biochemical
T1 construct: gene bla; plasmid p3442-FLC-1 gene cloned in pBAD-FLC, expressed in E. coli LMG194; unpurified soluble (cytoplasmic) fraction; about 33 kDa
Description: nitrocefin hydrolysis inhibition on FLC-1 (FRI-like carbapenemase-1) | the inhibition of FLC-1 enzymatic activity by clavulanic acid was tested

[2] = system: CC1(C)S[C@@H]2[C@H](NC(=O)[C@H](N)c3ccccc3)C(=O)N2[C@H]1C(=O)O; experiment: cells, lysate or membranes; assay type: biochemical, Enterobacter cloacae; conditions: PBS, 0.01% Triton X-100, pH 7.4, 23°C, cytoplasmic fraction of E. coli LMG194 producing FLC-1
[3] = system: CO/N=C(\C(=O)N[C@@H]1C(=O)N2C(C(=O)O)=C(COC(C)=O)CS[C@H]12)c1csc(N)n1; experiment: cells, lysate or membranes; assay type: biochemical, Enterobacter cloacae; conditions: PBS, 0.01% Triton X-100, pH 7.4, 23°C, cytoplasmic fraction of E. coli LMG194 producing FLC-1
[4] = system: C[C@@H](O)[C@H]1C(=O)N2C(C(=O)O)=C(SCCN=CN)C[C@H]12; experiment: cells, lysate or membranes; assay type: biochemical, Enterobacter cloacae; conditions: PBS, 0.01% Triton X-100, pH 7.4, 23°C, cytoplasmic fraction of E. coli LMG194 producing FLC-1
[5] = system: C[C@@H](O)[C@H]1C(=O)N2C(C(=O)O)=C(S[C@@H]3CN[C@H](C(=O)N(C)C)C3)[C@H](C)[C@H]12; experiment: cells, lysate or membranes; assay type: biochemical, Enterobacter cloacae; conditions: PBS, 0.01% Triton X-100, pH 7.4, 23°C, cytoplasmic fraction of E. coli LMG194 producing FLC-1
[6] = system: C[C@@H](O)[C@H]1C(=O)N2C(C(=O)O)=C(S[C@@H]3CN[C@H](C(=O)Nc4cccc(C(=O)O)c4)C3)[C@H](C)[C@H]12; experiment: cells, lysate or membranes; assay type: biochemical, Enterobacter cloacae; conditions: PBS, 0.01% Triton X-100, pH 7.4, 23°C, cytoplasmic fraction of E. coli LMG194 producing FLC-1

T1 sequence (A0A2I5JVQ1 entry or part of it): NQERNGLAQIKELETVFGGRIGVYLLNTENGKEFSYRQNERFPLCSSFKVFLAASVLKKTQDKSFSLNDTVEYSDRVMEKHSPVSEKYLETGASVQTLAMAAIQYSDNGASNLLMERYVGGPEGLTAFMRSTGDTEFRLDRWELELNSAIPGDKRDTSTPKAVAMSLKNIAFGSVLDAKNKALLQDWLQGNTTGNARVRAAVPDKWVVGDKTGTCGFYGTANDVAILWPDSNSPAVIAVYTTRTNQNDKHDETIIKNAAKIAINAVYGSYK

Row | Compound | IC50 [1] [nM] | Km [2] | Km [3] [µM] | Km [4] [µM] | Km [5] [µM] | Km [6] [µM]
1 | O=C(O)[C@H]1/C(=C/CO)O[C@@H]2CC(=O)N21 [clavulanic acid] | 1970 ± 90 | – | – | – | – | –
2 | FLC-1 (FRI-like carbapenemase-1) (Enterobacter cloacae) | – | 1,649 ± 174.2 μM | 377.1 ± 110.6 | 177.2 ± 12.5 | 32.4 ± 9.3 | 29.6 ± 11.7

From publication PMC6535546, “Novel Carbapenemases FLC-1 and IMI-2 Encoded by an Enterobacter cloacae Complex Isolated from Food Products” (Antimicrobial Agents and Chemotherapy, 2019)
